Data from article PMC6618080.

Target: Hepatitis B e antigen (HBeAg), purified (hepatitis B virus)
Assay: SEC-MALS

Hepatitis B e antigen (HBeAg), purified (natural protein)
stoichiometry N: 2
